The DeepSol protein solubility set

Assay: soluble on expression in E. coli; label from the status in PepcDB or PDB records
With “MGSDKIHHHHHHMNKLEIENLSKIYGKKVANDKITVTLENGVYGLLGPNGAGKSTLMKQITTLIKPDEGQILYNGEDIFKMDADYRNILGYLPQEFGVYKNFTAKEFLQYIGALKGLRGKYLNSKIGELLDLVGLYDVRNKSIGKFSGGMKRRVGIAQVLLNDPKIIVLDEPTAGLDPQERARFRNLIAKMSRDKIIILSTHIISDIESVAKETIMIKDGKLLMKGTHKDILSHMENKVYNVQVKNECEVDDIQSKYKVVSIQSDINSIVLRIVSEDIPSEDNIQPVQAKFEDVYMFYFDLEDAREV” the “soluble on expression in E. coli” value was “not soluble”. With “MKESLKDRIRLWKRLYVNAFENALNAIPNVKGVLLAYNTNIDAIKYLDADDLEKRVTEKGKEKVFEIIENPPEKISSIEELLGGILRSIKLGKAMEWFVESEEVRRYLREWGWDELRIGGQAGIMANLLGGVYRIPTIVHVPQNPKLQAELFVDGPIYVPVFEGNKLKLVHPKDAIAEEEELIHYIYEFPRGFQVFDVQAPRENRFIANADDYNARVYMRREFREGFEEITRNVELAIISGLQVLKEYYPDGTTYKDVLDRVESHLNILNRYNVKSHFEFAYTANRRVREALVELLPKFTSVGLNEVELASIMEIIGDEELAKEVLEGHIFSVIDAMNVLMDETGIERIHFHTYGYYLALTQYRGEEVRDALLFASLAAAAKAMKGNLERIEQIRDALSVPTNERAIVLEEELEKEFTEFENGLIDMVDRQLAFVPTKIVASPKSTVGIGDTISSSAFVSEFGMRKR” the “soluble on expression in E. coli” value was “soluble”. For “MAHHHHHHKNTAKTAPNHDRIKNLIAKLNNSKDEDKKKNSPNGQINRTGDVYAKNELINKKKKHINFETFLRIFLETYEEPLSVDELITSFEFFDKEKSGYLDEEKVRFILKNSEERLADEDMKLFLNSLNLRDKDKIDYVMLAKRLKNVA”, the “soluble on expression in E. coli” value was “soluble”. In the case of “DQPGHYVGTDPNLGALSAFLAGETEEVPDANEIMPVLWDMVTTGVAQGESARAVRTAFVSNPSAALTGLSESLVPAEKQPGRVVESGLVRAKFTASNDESGSSHHRAPWIAVLELLGSLDAMTDQSGKPIELETDAPAPAGKKLSEGVVAKRALLAEIKELAGENAVAIVKTARDTTLDTACIDQSTVAIAGMAKAQQEALLEMFFSRSKIVPGLIMDDGNRLLAVFETFNKRVELNELLASEGLIKSAVTLLRTLRSTDKNLYSLARIRFDKLDGVDTNAPENMWSLTPVVSLVLALAARMHAHGFISSNKTLDSATPGWAKLADIVPDLVTGDLIAADAIILAMKKPGIA”, the “soluble on expression in E. coli” value is reported as “not soluble”. In the case of “MAAAAAARKGGFWQRFAGKGVVQHCQSPTAPLPEACADMLWSNLGLLAAESIVPVLQNWARALKTDGLLFFTCFGRDTLAELKCRLKENGIESRSVMFPDMHDLGDMLAENGFYDPVTDTAKLVLDYKKAETFWADMDTLGIWRAMAWNDENAARSCVGTIFEREGGLGITLETVYGHAVKKLMLPQGENVVQFFPKRLEHHHHHH”, the “soluble on expression in E. coli” value is reported as “soluble”. For “MSLAIPFKRINLNLILHLDALLSERSVSAAAEKVFVSQPAMSSSLKQLRELFKDPLLIPGKGEYFLSPKAKELQPQLEQVMFFIRNILQPNERFDPFQTKRSFKIALPDYVELILLPSLMAALEKLPHIVIETTIQSMADDPHLFIDENVDLAIGAINENSLSAQLKVEKLYEEEIICFASKNNPLINRPLSLEDYISNKHIAFSFNQERYSHSAEYLYKRKLVRNDMLFVKNILPAIFAVANSDAVISTAPSFLINMFARQFNLGMQPLPFNLEPTPIYLVTHSKSQYDEGVSWLAKLVSSSIKSPSEGHHHHHH”, the “soluble on expression in E. coli” value was “soluble”. With “MGSDKIHHHHHHMARYYMPAEGDSYLKKVWTWATTGKRFRPSFPRTIEFQTLSTCNAKCIFCPHKHSPKDIPHGRMDDALFRKIVDECARHFVGRVSPYLTNEPLMDKRMPEMLRYIHDKMPFFTKSKINTNAALLTEETGEALIRAGLTHLWISVNGYSPETYRTSMDLDLDRTLTNIDTFLATKRRLGAKNPKVIVTTVETNIVKPELDYARKYWKERDIVFKVHAMDNRAGADSLTFKASKPKLKRNCDLFLKQAYIVENGDMIICCHDWKQTVKVGNVAETSIKEVWNSRYFTDLIRDYVRGDYSRLGICAKCSS” the “soluble on expression in E. coli” value was “not soluble”. In the case of “MSLSDPKFIHLRIHSDFSMVDGLSKVPPLVKKVAAMGMPAMALTDFTNLCGLVKFYSTAHNCGVKPIIGADFTLQSEEFGDELTKLTLLAKNNVGYKNLTLLISKAYLRGHVQHQPVIDKAWLVEHAEGLIVLSGGKSGEVGRALLKGNQQQVERCIEFYQTHFADHFYLELIRTGRADEESYLHFALDVAEQYDLPVVATNEVVFITEGHHHHHH”, the “soluble on expression in E. coli” value is reported as “not soluble”. For “VMPLILLPAVDVVEGRAVRLVQGKAGSQTEYGSAVDAALGWQRDGAEWIHLVDLDAAFGRGSNHELLAEVVGKLDVQVELSGGIRDDESLAAALATGCARVNVGTAALENPQWCARVIGEHGDQVAVGLDVQIIDGEHRLRGRGWETDGGDLWDVLERLDSEGCSRFVVTDITKDGTLGGPNLDLLAGVADRTDAPVIASGGVSSLDDLRAIATLTHRGVEGAIVGKALYARRFTLPQALAAVRD”, the “soluble on expression in E. coli” value was “soluble”. In the case of “MAELQFPGVYVEDVGHLAFGTLKLTEKSLNFKGDKGGKSVNVTGSDIDKLKWQKLGNKPGLRVGLNDGGAHRFGGFKDTDLEKIQSFTSSNWSQSIDQSNLFIKGWNYGQAEVKGKTVEFSWEDKPIFEIPCTNVSNVIANKNEAVLEFHQNDDSKVQLMEMRFHMPIDLENEEDADKVEEFKKAVLAYAGLEAETEQPICLLTDILCTTPRGRYDIKVYPTSIALHGKTYDYKIPIKSINRLFLVPHKDGRHVYFVLSLNPPIRQGQTRYSYLIFEFGKDEEQDLELALTDEQLESSNGNLRRDMTGPIYETISILFKSICNLKITVPGRFLGSSGTPAIQCTHRQNPGLLYPMEKGFLFIHKPAMYIRFEEISSCHFARSDSGTVTRTFDFEIDLKYGGPLTFNAMEKEENNKLFDYLNKKNIKIRNSQRVENTVADSSDDEIDPYKAAVTAEGRQRDDSDDDSTDEDYDLDKDIKKKKEDKESSEGTGSEPDDEYDSGSEQDSSGTGESEPDSEQDVPSKRRKGEPKEKREKKEKREKKEGKKGKKDKDPNAPKRATSAYMQWFLASRNELKEDGDSVADVAKKGGAKWKTMSSDDKKKWEEKAEEDKSRYEKEMKEYRKNGPPSSSSKPSSSKTSKKSSGPSSSKAISKEYISDSDDSDDEEPKKKEKKAAPKEESEESNNGSDGSDESDDSD”, the “soluble on expression in E. coli” value is reported as “soluble”. For “MGHHHHHHSHMNIPLEELQRNLQFHAFISYSGHDSFWVKNELLPNLEKEGMQICLHERNFVPGKSIVENIITCIEKSYKSIFVLSPNFVQSEWCHYELYFAHHNLFHEGSNSLILILLEPIPQYSIPSSYHKLKSLMARRTYLEWPKEKSKRGLFWANLRAAINIKLTEQAK”, the “soluble on expression in E. coli” value was “soluble”. With “SFQEQTTKSRDVNSFQIPLRDGVRELLPEDASRNRASIKSPVDIWIGGENMTALNGIVDGGRKFEAGQEFQINTFGSVNYWVSDEEIRVFKEYSARAKYAQNEGRTALEANNVPFFDIDVPPELDGVPFSLKARVRHKSKGVDGLGDYTSISVKPAFYITEGDETTDTLIKYTSYGSTGSHSGYDFDDNTLDVMVTLSAGVHRVFPVETELDYDAVQEVQHDWYDESFTTFIEVYSDDPLLTVKGYAQILMERT” the “soluble on expression in E. coli” value was “soluble”. In the case of “MGSDKIHHHHHHMEQRKRRLPPLKSLLFLESVVRNQSVTAAADELSITHSAVSKQLSQLEVWIGQPLFLEKRKGMIPTAEIGRVAAVLGNAFDEIQDALDELHPKRAAKPPVLRVIAPATLAMRWLIPKLGEFHTSAGETDVMVRPTHTPDNWLEMEFDIAIRRGGLIPPQFLPQSLFAETLSLVATARVAESYRMGQGDQLSQIGLIDVSTRHGELMNWLKLAGLPVAMARQATKLPHFYIALDAMFAGRGALVVPTYLIEDQLSRGELVELFPQSRIQGPSYQVFVNPASGAGNLAKGFVDWIKRAIPSVAQYAETR”, the “soluble on expression in E. coli” value is reported as “not soluble”. For “MGSDKIHHHHHHMDSNYTKAGYLTEPFKIFHLRDEHKLNIDFHYHDFHKILIHLHGNVSYCIEGRSYELKEHDIVLVNAGEVHKPILNDDSIYERIIIYVSQQLIDDYVSKGYDLACCFKQAYANQSHVLRLAATKGSRLADTIKGLDSTLRETNEYANELYQKLLFLEFLIQLNRITLHGGIEYINTFSSNKKIVEILDFLNKNLTNRISIDELADKFYMSRYHLMHTFKEETGCTIGSYITTKRLLLARDMIRDGSSVSAACDACGFGSYSSFIRAYRKQFHSTPTNT”, the “soluble on expression in E. coli” value was “not soluble”. For “MAHHHHHHMPVIKEYINPAGLRLDGRRPNEPRRLALEFGKISGCDGCCTVVSGLSHVCATVYGPREVSNRLEGKYNEVTITCDVVVAAFAGERRREQQRYSRLSEDISASVLDVARSVVLLSQYPNSQIHICIEVLKQDGSDKAACINAACLALIDASIAMKDVVYTQTVGLIEGFDVVDLTTEEIHSQCPSICITVQGHDPTNIVWMESNSRLAPEVITRLVKVAQKASTDVFETALRGPLEEHAATVLRLQANLGNIE”, the “soluble on expression in E. coli” value was “soluble”. With “MAVPPAYADLGKSAKDIFNKGYGFGMVKLDVKTKSASGVEFKTSGSSNTDTSKVVGSLETKYKRSEYGLTFTEKWNTDNTLGTEINIEDQIAKGLKLTFDTTFSPNTGKKSGKVKTAYKREFVNLGCDVDFDFAGPTIHGAAVVGYEGWLAGYQMSFDTAKSKMTQNNFAVGYKTGDFQLHTNVNDGSEFGGSIYQKVSDKLETAVNLAWTAGSNSTRFGIAAKYQLDKDASISAKVNNTSLVGVGYTQSLRPGIKLTLSALVDGKSINSGGHKLGLGLELEA” the “soluble on expression in E. coli” value was “not soluble”. With “MSLDRVEVLGVEFVEFTADQTEAEALGSLLGAMGFRAVASHREKAVTLWRQGCDHRGINVVINTEQKGFAHSSYLVHGASAYAIGLKVPDASAAVERARALGAEIFLPESGEGEGAMAAIRGMGGGLIYFVDEIDDVWSREFVAPGDDRQPAATLVAIDHVAQSMKEEQLPSWLLFYTSILDADKLAQVDIVDPAGLVRSQVVENASGTLRLTLNGADNHRTLAGHFIAESFGSGVQHVAFRTDDIFEAAEHMRRSGFRALAISRNYYDDIEVRFALEPGFVDRLRDENILYDRDEDGEYFQIYGPTFGEGFFFEIVERRSGYRGYGAANAPFRIAAQKRCLRPAGMPAEGSSRVDLQVCRPKKGIITITTDPNSSSVDKLAAALEHHHHHH” the “soluble on expression in E. coli” value was “soluble”. With “MNNILSEEVLNVTDFTTSRQLTLWKREDLQSPQLDDVAEEVPVALVYNGISHVVMMASPKDLTHFAMGFSLSEGIIDSPREIYGMDVVPSCNGLEVQIDLSSRRFMGLKARRRALAGRTGCGVCGVEQLNDIGKPVQPLPFSQTFNLGNLDRALKHLNDFQPTGKLTGCTHAAAWVMPSGELAGGHEDVGRHVALDKLLGRRATEGEEWRQGAALVSSRASYEMVQKSAMCGVEILFAVSAATTLAVEVAERCNLTLVGFCKPGRATIYTHPQRLIADLEHHHHHH” the “soluble on expression in E. coli” value was “not soluble”. For “MVYVAVLANIAGNFPALTAALEKIEELKEEGYEIEKYYILGNIVGLFPYPREVIEAIKNLAKTSNVKVIRGKYDQLIAMSDPHAGDPKYIDKLEIPDHLKATLKYTWEKLGHEGREYLRDLPIYLVDKIGKNEIFGVYGSPVNPFDGEILPDQPTSYYEAIMRPVKEYEMLLVASPRYPLDAMTMYGRVVCPGSIGFPPAREHKATFALVDAETLKVKFIEVEYDKKIIEDRIKLEKLPEEVIKILYHGGKA”, the “soluble on expression in E. coli” value was “soluble”. With “MSLPSAQAPSLLNPTDDFAALGNIAWLWMNSPMHRDWPVHLLARNTLAPIQLGQYILLRCNDVPVAYCSWALMDADTELSYVMAPSSLGGNAWNCGDRLWIIDWIAPFSRDDNRALRRALAERHPDSVGRSLRVRRGGDTARVKEYRGRALDAAAARAQLDRYHAELIAGLRASNGGYAPREGHHHHHH” the “soluble on expression in E. coli” value was “not soluble”.
